Assay results taken from patent publication US9884093B2 (Eli Lilly and Company, priority 2015, dated 2018).
Like-named read-outs stand apart in the source and are kept apart here.

Tests used:
[1] = molecular target: T1, glucose-dependent insulinotropic polypeptide receptor, hGIP-R (Homo sapiens, UniProt P48546); assay: hGIP-R functional cAMP assay; details: read-out: EC50 GIP Receptor Assay
T1 sequence (P48546 22-466): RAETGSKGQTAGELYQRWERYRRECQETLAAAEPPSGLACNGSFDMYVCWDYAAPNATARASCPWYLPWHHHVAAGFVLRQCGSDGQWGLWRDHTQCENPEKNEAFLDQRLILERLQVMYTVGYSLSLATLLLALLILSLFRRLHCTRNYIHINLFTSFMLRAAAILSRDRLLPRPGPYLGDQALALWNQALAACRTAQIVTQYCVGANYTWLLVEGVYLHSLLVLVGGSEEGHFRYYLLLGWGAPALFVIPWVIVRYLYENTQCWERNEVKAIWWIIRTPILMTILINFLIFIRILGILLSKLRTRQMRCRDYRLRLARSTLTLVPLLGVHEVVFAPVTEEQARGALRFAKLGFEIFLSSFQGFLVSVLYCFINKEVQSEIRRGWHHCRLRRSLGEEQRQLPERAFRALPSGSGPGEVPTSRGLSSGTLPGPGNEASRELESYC
Procedure: (§1) The hGIP-R functional assay uses hGIP-R (Usdin, T. B., Gruber, C., Modi, W. and Bonner, T. I., GenBank: AAA84418.1) cloned into pcDNA3.1 (Promega)-NeoR plasmid. The hGIP-R-pcDNA3.1/Neo plasmid is transfected into Chinese Hamster Ovary cells, CHO-S, for suspension cultures and selected in the presence of 500 μg/mL Geneticin (Invitrogen).

[2] = molecular target: T2, human glucagon receptor (hGcg-R) (Homo sapiens, UniProt P47871); assay: hGcg-R functional cAMP assay; type: cell-based; details: read-out: EC50 Gcg Receptor Assay
T2 construct: expressed in transfected cells; host or cells: 293HEK cells, hygromycin-selected
T2 sequence (P47871 26-477): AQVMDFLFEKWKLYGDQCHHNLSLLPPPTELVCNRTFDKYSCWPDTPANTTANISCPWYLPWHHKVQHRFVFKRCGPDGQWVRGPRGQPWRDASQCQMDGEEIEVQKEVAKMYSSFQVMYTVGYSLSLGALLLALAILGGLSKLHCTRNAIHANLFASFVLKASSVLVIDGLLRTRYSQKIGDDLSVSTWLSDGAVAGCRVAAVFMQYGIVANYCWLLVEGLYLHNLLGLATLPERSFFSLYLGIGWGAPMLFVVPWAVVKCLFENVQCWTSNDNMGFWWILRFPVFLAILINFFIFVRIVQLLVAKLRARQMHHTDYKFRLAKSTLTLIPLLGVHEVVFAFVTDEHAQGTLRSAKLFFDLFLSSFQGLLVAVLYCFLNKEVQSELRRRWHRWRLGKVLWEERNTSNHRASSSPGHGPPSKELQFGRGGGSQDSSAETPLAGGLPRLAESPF

[3] = molecular target: human Glucagon-Like Peptide-1 receptor (hGLP-1-R) (Homo sapiens, UniProt P43220); assay: hGLP-1-R functional cAMP assay; details: read-out: EC50 GLP-1 Receptor Assay
Sequence of human Glucagon-Like Peptide-1 receptor (hGLP-1-R) (P43220 24-463): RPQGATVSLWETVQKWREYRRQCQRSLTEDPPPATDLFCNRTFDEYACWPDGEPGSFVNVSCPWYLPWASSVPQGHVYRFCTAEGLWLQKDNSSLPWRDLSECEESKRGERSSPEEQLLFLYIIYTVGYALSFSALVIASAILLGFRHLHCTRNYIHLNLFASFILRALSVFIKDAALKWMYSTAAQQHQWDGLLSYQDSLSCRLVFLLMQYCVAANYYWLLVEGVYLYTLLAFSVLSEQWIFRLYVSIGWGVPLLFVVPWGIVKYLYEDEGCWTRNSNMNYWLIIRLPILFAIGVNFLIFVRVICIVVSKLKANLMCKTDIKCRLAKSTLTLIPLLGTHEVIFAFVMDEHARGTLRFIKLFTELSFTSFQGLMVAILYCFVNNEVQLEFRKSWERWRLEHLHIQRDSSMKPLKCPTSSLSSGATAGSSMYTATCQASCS
Procedure: as §1

[4] = Stability in co-formulation with GLP-1R agonist (SEC-HPLC, RP-HPLC); type: physicochemical; details: four weeks
Procedure: Examples 1 and 3 are prepared and dialyzed against C6.5 (10 mM Citrate pH 6.5) using the same method as described above for preparation into T7 buffer. Compounds are formulated separately at 1 mg/mL peptide in buffer C6.5, C6.5M (10 mM Citrate, 46.4 mg/mL D-mannitol, pH 6.5), C6.5T (10 mM Citrate, 0.02% polysorbate-80, pH 6.5), and C6.5MT (10 mM Citrate, 46.4 mg/mL D-mannitol, 0.02% polysorbate-80, pH 6.5). A stock concentration of 46.5 mg/mL of dulaglutide in C6.5 is used to formulate dulaglutide at 3 mg/mL in C6.5 and C6.5MT. Co-formulations in C6.5MT are prepared having 3 mg/mL dulaglutide and 1 mg/mL Example 1, or 3 mg/mL dulaglutide and 1 mg/mL Example 3. Each formulated sample is transferred to three vials and maintained at 4° C., 25° C. and 40° C. Samples are assessed every two weeks for a total of four weeks. Samples are visually assessed for turbidity and phase separation. Stability is assessed by RP-HPLC and SEC-HPLC as described above. Both described HPLC methods give good separation of Example compounds and dulaglutide main peaks as well as all degradation peaks produced by stressing the sample at pH 9 and 40° C. for 3 days.

EC50 ([1]; sample C6.5-4 C.-4 wk): > 0.1 µM
EC50 ([1]; sample C6.5-40 C.-4 wk): > 0.1 µM
EC50 ([1]; sample C6.5MT-4 C.-4 wk): > 0.1 µM
EC50 ([1]; sample C6.5MT-40 C.-4 wk): > 0.1 µM
EC50 ([2]; sample C6.5-4 C.-4 wk): 0.0519 ± 0.0681 µM
EC50 ([2]; sample C6.5-40 C.-4 wk): > 0.1 µM
EC50 ([2]; sample C6.5MT-4 C.-4 wk): 0.054 ± 0.065 µM
EC50 ([2]; sample C6.5MT-40 C.-4 wk): > 0.1 µM
EC50 ([3]; sample C6.5-4 C.-4 wk): 0.00037 ± 0.00011 µM
EC50 ([3]; sample C6.5-40 C.-4 wk): 0.00031 ± 0.00017 µM
EC50 ([3]; sample C6.5MT-4 C.-4 wk): 0.0004 ± 0.00014 µM
EC50 ([3]; sample C6.5MT-40 C.-4 wk): 0.00029 ± 9e-05 µM
Substance: dulaglutide
GLP-1-Fc Δ % Main Peak ([4]; RP-HPLC, C6.5, 4° C.): −1.45%
GLP-1-Fc Δ % Main Peak ([4]; RP-HPLC, C6.5, 25° C.): >−10%
GLP-1-Fc Δ % Main Peak ([4]; RP-HPLC, C6.5, 40° C.): −9.96%
GLP-1-Fc Δ % Main Peak ([4]; RP-HPLC, C6.5MT, 4° C.): −0.46%
GLP-1-Fc Δ % Main Peak ([4]; RP-HPLC, C6.5MT, 25° C.): −0.8%
GLP-1-Fc Δ % Main Peak ([4]; RP-HPLC, C6.5MT, 40° C.): −7.47%
GLP-1-Fc Δ % Main Peak ([4]; SEC-HPLC, C6.5, 4° C.): 0.19%
GLP-1-Fc Δ % Main Peak ([4]; SEC-HPLC, C6.5, 25° C.): −0.54%
GLP-1-Fc Δ % Main Peak ([4]; SEC-HPLC, C6.5, 40° C.): >−10%
GLP-1-Fc Δ % Main Peak ([4]; SEC-HPLC, C6.5MT, 4° C.): 0.29%
GLP-1-Fc Δ % Main Peak ([4]; SEC-HPLC, C6.5MT, 25° C.): −0.87%
GLP-1-Fc Δ % Main Peak ([4]; SEC-HPLC, C6.5MT, 40° C.): −0.83%
